Molecular target: T1, recombinant cyno C1r2s2 His/Flag tetramer (cynomolgus monkey, limits assumed)
T1 construct: Heterotetramer of two C1r-His and two C1s-Flag chains, co-expressed in FreeStyle293-F cells; also called cyno C1r2s2s
T1 chain 1: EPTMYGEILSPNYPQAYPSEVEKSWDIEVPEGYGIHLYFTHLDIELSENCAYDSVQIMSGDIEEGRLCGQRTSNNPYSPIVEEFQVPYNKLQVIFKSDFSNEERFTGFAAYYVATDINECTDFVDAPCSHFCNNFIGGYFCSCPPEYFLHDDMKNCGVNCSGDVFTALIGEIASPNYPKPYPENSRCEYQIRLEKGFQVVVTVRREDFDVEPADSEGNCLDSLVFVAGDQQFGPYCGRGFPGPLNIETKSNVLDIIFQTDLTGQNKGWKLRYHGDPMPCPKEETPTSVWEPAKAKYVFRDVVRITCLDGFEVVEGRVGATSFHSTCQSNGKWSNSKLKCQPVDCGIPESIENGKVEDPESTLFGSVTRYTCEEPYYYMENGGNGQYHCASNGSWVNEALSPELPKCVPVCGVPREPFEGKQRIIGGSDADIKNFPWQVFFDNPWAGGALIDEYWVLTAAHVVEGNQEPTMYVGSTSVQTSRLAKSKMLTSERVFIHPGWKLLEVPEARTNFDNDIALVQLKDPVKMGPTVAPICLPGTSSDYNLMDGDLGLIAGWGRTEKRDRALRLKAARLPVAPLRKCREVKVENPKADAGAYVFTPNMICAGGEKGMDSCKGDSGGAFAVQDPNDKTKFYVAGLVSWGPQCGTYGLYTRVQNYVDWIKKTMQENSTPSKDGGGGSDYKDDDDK
T1 chain 2: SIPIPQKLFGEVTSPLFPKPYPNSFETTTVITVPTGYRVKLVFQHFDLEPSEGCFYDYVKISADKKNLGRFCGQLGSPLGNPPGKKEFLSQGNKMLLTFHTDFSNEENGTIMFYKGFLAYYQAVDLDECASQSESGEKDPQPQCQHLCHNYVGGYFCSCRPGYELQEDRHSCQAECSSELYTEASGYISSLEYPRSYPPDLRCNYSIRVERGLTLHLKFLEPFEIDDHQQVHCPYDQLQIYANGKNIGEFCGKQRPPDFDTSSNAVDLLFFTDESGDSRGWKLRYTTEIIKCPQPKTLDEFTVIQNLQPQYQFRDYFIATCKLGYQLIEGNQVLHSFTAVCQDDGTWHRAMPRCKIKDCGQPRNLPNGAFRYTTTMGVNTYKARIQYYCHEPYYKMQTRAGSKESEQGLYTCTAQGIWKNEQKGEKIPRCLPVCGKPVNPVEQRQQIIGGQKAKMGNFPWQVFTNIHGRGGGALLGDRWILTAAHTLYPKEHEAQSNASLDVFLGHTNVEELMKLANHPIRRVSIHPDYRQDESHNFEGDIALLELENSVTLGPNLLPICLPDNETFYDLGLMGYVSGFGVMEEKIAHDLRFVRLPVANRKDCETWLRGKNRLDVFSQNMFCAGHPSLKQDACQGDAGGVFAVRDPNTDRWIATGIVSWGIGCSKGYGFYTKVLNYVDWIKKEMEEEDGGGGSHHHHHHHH
Test: SPR (Biacore), antibody captured on ProA/G, antigen as analyte, 37 C, pH7.4, 1.2 mM CaCl2; pH 7.4
Experimental: The kinetic parameters of anti-C1s antibodies against recombinant human C1s (as described in PCT/JP2018/042054), human C1r2s2, and cyno C1r2s2 His/Flag (also referred as cyno C1r2s2 in the Table and Figures) were assessed at pH7.4 and pH5.8, at 37 degrees C. using BIACORE (registered trademark) T200 instrument (GE Healthcare) or BIACORE 4000 (GE Healthcare). ProAG (Pierce) was immobilized onto a CM4 sensorchip using amine coupling kit (GE Healthcare) according to the recommended settings by GE Healthcare. Antibodies and analytes were diluted into the respective running buffers, ACES pH7.4 and pH5.8 (20 mM ACES, 150 mM NaCl, 1.2 mM CaCl₂, 1 mg/ml BSA, 1 mg/ml CMD, 0.05% Tween 20, 0.005 w/v % NaN₃). Each antibody was captured onto the sensor surface by ProA/G. Antibody capture levels were typically 100-200 resonance units (RU). Then, recombinant C1s was injected at concentrations of 25 and 50 nM followed by dissociation at pH7.4 and pH5.8. The surface was regenerated using 10 mM Glycine-HCl, pH1.5. Kinetic parameters at neutral pH conditions and acidic conditions were determined by fitting the sensorgrams with 1:1 binding model using BIACORE (registered trademark) T200 Evaluation software, version 2.0 (GE Healthcare) or BIACORE 4000 Evaluation software. The dissociation rate at pH5.8 (after dissociation at pH7.4, indicated as pH5.8* in TABLE 2) was determined by processing and fitting data using Scrubber 2.0 (BioLogic Software) curve fitting software. The association rate (ka), dissociation rate (kd), binding affinity (KD) at pH7.4 and pH5.8 condition, and dissociation rate (kd) at pH5.8* condition of the antibodies are listed in TABLE 2. Some kinetic parameters of COS0098pHv1 in acidic condition were not correctly calculated because of its weak binding response.
Also, to observe the cross-reactivity of anti-C1s antibodies against human C1r2s2 and cyno C1r2s2 (cyno C1r2s2 His/Flag), BIACORE (registered trademark) kinetics analysis was performed.

Kd: 0.0821 nM
koff: 8.1e-05 s⁻¹
kon: 987000 M⁻¹ s⁻¹
B1: COS0098bb (antibody, V domains shown)
VH: QSVEESGGRLVTPGTPLTLTCTVSGFSLTKYTVSWVRQAPGKGLEWIGIINTGGSAYYATWAKGRFTFSKTSTTVDLQITSPTTEDTATYFCARGNGDTDYTNLWGPGTLVTVSS
VL: QVLTQTPSSVSEPVGGTVTINCQASENIYSALAWYQQKPGQPPKLLIYGASNLESGVPSRFKGSGSGTQFTLTISDLECADAATYYCQQYYFTSSTFGGGTKVEIK
notes: Anti-C1s rabbit antibody, parent of COS0098pHv1; the antibody was captured by ProA/G; also called anti-C1s antibody COS0098bb

From patent publication US20230002481A1 (Chugai, published 2023)
